# PMC6018636, “Mutually exclusive acetylation and ubiquitylation of the splicing factor SRSF5 control tumor growth” (Nature Communications, 2018)
# Molecular target: T1, His-Smurf1 (UniProt Q9HCE7-2 1-731)
# T1 construct: Smurf1, inserted into pET-28a; also called His-tagged Smurf1; source: Escherichia coli BL21, purified
# Test: pull-down; bacteria-expressed GST-tagged protein immobilised on glutathione-Sepharose 4B beads, incubated with His-tagged protein for 8 h at 4 °C; washed with GST-binding buffer (100 mM NaCl, 50 mM NaF, 2 mM EDTA, 1% NP-40); immunoblotting
# Conditions: both partners purified
# T1 sequence (Q9HCE7 other isoform, or with tags, fused parts or gaps): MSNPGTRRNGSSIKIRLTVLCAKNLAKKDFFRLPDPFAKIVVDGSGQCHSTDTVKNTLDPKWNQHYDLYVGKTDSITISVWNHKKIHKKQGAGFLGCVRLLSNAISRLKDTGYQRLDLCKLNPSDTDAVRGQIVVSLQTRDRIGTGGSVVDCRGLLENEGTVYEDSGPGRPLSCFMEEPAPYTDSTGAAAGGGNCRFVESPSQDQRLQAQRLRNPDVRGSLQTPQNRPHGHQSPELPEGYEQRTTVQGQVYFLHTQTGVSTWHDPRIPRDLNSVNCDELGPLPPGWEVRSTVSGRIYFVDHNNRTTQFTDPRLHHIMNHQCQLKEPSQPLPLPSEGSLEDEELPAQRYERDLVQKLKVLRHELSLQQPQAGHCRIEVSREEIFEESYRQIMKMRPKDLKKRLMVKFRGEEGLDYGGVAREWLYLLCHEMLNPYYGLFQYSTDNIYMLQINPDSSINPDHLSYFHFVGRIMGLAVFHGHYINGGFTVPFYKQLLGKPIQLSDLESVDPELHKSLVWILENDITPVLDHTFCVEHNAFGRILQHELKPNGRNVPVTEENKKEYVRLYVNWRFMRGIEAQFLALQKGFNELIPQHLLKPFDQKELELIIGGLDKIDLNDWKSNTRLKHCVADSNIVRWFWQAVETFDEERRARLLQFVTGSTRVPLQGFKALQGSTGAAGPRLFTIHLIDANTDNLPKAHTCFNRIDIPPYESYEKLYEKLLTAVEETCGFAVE
binder,measurement,value
"GST-SRSF5 (natural protein, UniProt Q13243 1-272, looked up, splicing factor SRSF5, inserted into pGEX-6P-1; also called GST–SRSF5 fusion protein; source: Escherichia coli BL21, purified; immobilised on glutathione-Sepharose 4B beads) MSGCRVFIGRLNPAAREKDVERFFKGYGRIRDIDLKRGFGFVEFEDPRDADDAVYELDGKELCSERVTIEHARARSRGGRGRGRYSDRFSSRRPRNDRRNAPPVRTENRLIVENLSSRVSWQDLKDFMRQAGEVTFADAHRPKLNEGVVEFASYGDLKNAIEKLSGKEINGRKIKLIEGSKRHSRSRSRSRSRTRSSSRSRSRSRSRSRKSYSRSRSRSRSRSRSKSRSVSRSPVPEKSQKRGSSSRSKSPASVDRQRSRSRSRSRSVDSGN",binding result,binds
